T1: BoNT/B light chain (LC), yeast displayed (Clostridium botulinum, UniProt P10844 1-441)
T1 sequence: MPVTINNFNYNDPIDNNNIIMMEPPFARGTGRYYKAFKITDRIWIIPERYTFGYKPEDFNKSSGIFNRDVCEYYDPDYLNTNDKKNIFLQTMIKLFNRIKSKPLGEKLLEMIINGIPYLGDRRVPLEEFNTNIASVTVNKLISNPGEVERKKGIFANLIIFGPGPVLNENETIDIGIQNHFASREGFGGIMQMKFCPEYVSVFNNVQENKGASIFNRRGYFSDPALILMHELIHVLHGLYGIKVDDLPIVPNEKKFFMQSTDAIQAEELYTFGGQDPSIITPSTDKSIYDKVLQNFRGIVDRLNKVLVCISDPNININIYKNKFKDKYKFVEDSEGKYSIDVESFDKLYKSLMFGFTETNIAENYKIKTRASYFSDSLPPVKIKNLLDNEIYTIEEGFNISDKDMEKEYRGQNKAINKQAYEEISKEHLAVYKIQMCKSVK

T2: BoNT/B translocation domain (HN), yeast displayed (Clostridium botulinum, UniProt P10844 442-857)
T2 sequence: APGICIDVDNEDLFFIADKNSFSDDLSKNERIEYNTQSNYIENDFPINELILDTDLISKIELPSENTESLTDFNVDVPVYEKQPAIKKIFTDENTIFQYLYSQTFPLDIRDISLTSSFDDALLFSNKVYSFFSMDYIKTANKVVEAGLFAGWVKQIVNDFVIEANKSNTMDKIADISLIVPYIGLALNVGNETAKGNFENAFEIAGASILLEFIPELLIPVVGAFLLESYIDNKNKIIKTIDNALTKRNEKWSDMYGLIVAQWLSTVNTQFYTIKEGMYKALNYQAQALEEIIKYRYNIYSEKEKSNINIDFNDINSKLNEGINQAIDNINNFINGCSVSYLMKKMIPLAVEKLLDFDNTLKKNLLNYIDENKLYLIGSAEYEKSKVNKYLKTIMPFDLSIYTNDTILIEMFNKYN

B1: 6A12 IgG (antibody, V domains shown)
VH: QVQLVESGGGVVQPGRSLRLSCAASGFTFSSYGMHWVRQAPGKGLEWVSYISSSGSTIYYADSVKGRFTISRDNAKNSLYLQMNSLRAEDTAVYYCARVSIVGGPYGMDVWGQGTTVTVSS
VL: DIQMTQSPSSVSASVGNRVTITCRASQGISSWLAWYQQKPGKAPKLLIYAASSLQSGVPSRFSGSGSGTDFTLTISSLQPEDFATYYCQKANSFPLTFGGGTKMEIKR
B2: A12 IgG (antibody, V domains shown)
VH: EVQLVESGGGVVQPGRSLRLSCAASGFTFSSYGMHWVRQAPGKGLEWVAVIWYDGSNKYYADSVKGRFTISRDNSKNTLYLQMNSLRAEDTAVYYCARGYSNYDYYYGMDVWGQGTTVTVSS
VL: DIQMTQSPSSLSASVGDRVTITCRASQRISNYLNWYQQKPGKAPKLLIYAASSLQSEVPSRFSGSGSGTDFTLTISSLQPEDFATYYCQQSYRPPLTFGGGTKVEIKR
B3: B11 Fab (Fab, V domains shown)
VH: QVQLLQSAGGVVQPGRSLRLSCAASGFIFRTYGMHWVRQAPGKGLEWVAFVSSDGNNKFYSDSVKGRFTIPRDNAKNTLYLQMNSLETEDTAVYYCAKDRYPIDCSGGSCFSYGMDVWGQGTTVTVSS
VL: DIVMTQSPSTLSASVGDRVTVTCRASQSINSWLAWYQQKPGKAPKLLIYEASSLESGVPSRFSGSGSGTEFTLTISSLQPDDFATYYCQQYDSYWLTFGGGTKVEIKR
B4: 1B18 scFv (scFv)
scFv: EVQLVQSGGGLVQPGGSRRLSCAASGFYFNAYWMTWVRQAPGKGLEWVANINLDGTEIYYLDSVKGRFTVSRDNVKNSVFLQMSSLRVEDTAVYFCARLEWGGRNGWVSPWGQGTLVTVSSGGGGSGGGGSGGGGSDVVMTQSPSSVSASVGDRVTITCRASQSISSYLNWYQQRPGKAPKLLIFAASSLQSAVPSRFSGSGSGTDFTLTISSLQPEDFATYYCQQSYSTPPTFGQGTKVEIK
B5: 1B11 scFv (scFv)
scFv: QVQLLQSAGGVVQPGRSLRLSCAASGFIFRTYGMHWVRQAPGKGLEWVAFVSSDGNNKFYSDSVKGRFTIPRDNAKNTLYLQMNSLETEDTAVYYCAKDRYPIDCSGGSCFSYGMDVWGQGTTVTVSSGGGGSGGGGSGGGGSDIVMTQSPSTLSASVGDRVTVTCRASQSINSWLAWYQQKPGKAPKLLIYEASSLESGVPSRFSGSGSGTEFTLTISSLQPDDFATYYCQQYDSYWLTFGGGTKVEIK
B6: 4E17.1 IgG (antibody, V domains shown)
VH: EVQLVRSGGNLVQPGGSLRLSCAATGPIGSHWMTWVRQAPGQGLEWVANINLDGTEKFYVDSVKGRFTVSRDNRKSSVFLQMNNLRVDDTAVYYCARLQWGGYNGWLSPWGQGTLVTVSS
VL: DIVMTQSPSSLSASVGDRVTISCRASQSIRHYVNWYQQKPGKAPKLLIYKASSLASGAPSRFSGSGSGTDFTLTISSLQPDDFATYYCQQSYSIPLTFGGGTKVEIKR

Tests used:
[1] = molecular target: T1, BoNT/B light chain (LC), yeast displayed; assay: labeled detection mAb in flow cytometry sorting
[2] = molecular target: Botulinum neurotoxin type B, subtype B2 (BoNT/B2) (Clostridium botulinum); assay: flow cytometry, yeast-displayed Fab against yeast-displayed scFv
[3] = molecular target: T2, BoNT/B translocation domain (HN), yeast …; assay: soluble scFv or IgG on yeast-displayed BoNT/B domains
[4] = molecular target: T2, BoNT/B translocation domain (HN), yeast …; assay: IgG/Fab on yeast-displayed toxin domain, flow cytometry

Binder | binding result [1] | binding result [3] | also measured
B1 | binds |  | 
B2 | binds |  | 
B3 |  |  | fold higher affinity than the scFv [2]: 1.46 fold
B4 |  | binds | 
B5 |  | binds | 
B6 |  |  | binding result [4]: binds
